What was measured:
[1] = target: HLA-B*15:01; assay: IEDB peptide-MHC binding, purified MHC/direct/fluorescence; filed as Kd, often an IC50 or EC50 that approximates it; ≥ and ≤ were set here for values at or beyond the usual limits of such assays
[2] = target: HLA-B*46:01; assay: as above
[3] = target: HLA-A*32:01; assay: IEDB peptide-MHC binding, purified MHC/competitive/radioactivity; filed as Kd, often an IC50 or EC50 that approximates it; ≥ and ≤ were set here for values at or beyond the usual limits of such assays
[4] = target: HLA-B*07:02; assay: as above
[5] = target: HLA-B*44:03; assay: as above
[6] = target: HLA-B*44:02; assay: as above
[7] = target: HLA-B*15:01; assay: IEDB peptide-MHC binding, purified MHC/competitive/fluorescence; filed as Kd, often an IC50 or EC50 that approximates it; ≥ and ≤ were set here for values at or beyond the usual limits of such assays; settings: source organism: Escherichia coli 536
[8] = target: HLA-A*02:01; assay: as above; settings: source organism: Escherichia coli 536
[9] = target: HLA-B*51:01; assay: as above
[10] = target: HLA-A*29:02; assay: IEDB peptide-MHC binding, purified MHC/competitive/radioactivity; filed as Kd, often an IC50 or EC50 that approximates it; ≥ and ≤ were set here for values at or beyond the usual limits of such assays
[11] = target: HLA-A*11:01; assay: as above; settings: source organism: Vaccinia virus WR
[12] = target: HLA-A*33:01; assay: as above; settings: source organism: Vaccinia virus WR
[13] = target: HLA-A*03:01; assay: as above; settings: source organism: Vaccinia virus WR
[14] = target: HLA-A*31:01; assay: as above; settings: source organism: Vaccinia virus WR
[15] = target: HLA-A*68:01; assay: as above; settings: source organism: Vaccinia virus WR
[16] = target: HLA-A*26:01; assay: as above
[17] = target: HLA-A*30:02; assay: as above
[18] = target: HLA-A*01:01; assay: as above
[19] = target: HLA-A*24:02; assay: as above
[20] = target: HLA-A*23:01; assay: as above
[21] = target: HLA-B*46:01; assay: IEDB peptide-MHC binding, purified MHC/competitive/fluorescence; filed as Kd, often an IC50 or EC50 that approximates it; ≥ and ≤ were set here for values at or beyond the usual limits of such assays; settings: source organism: Cryptosporidium parvum Iowa II
[22] = target: HLA-B*57:01; assay: IEDB peptide-MHC binding, purified MHC/direct/fluorescence; filed as Kd, often an IC50 or EC50 that approximates it; ≥ and ≤ were set here for values at or beyond the usual limits of such assays
[23] = target: HLA-B*58:01; assay: as above
[24] = target: HLA-B*07:02; assay: as above; settings: source organism: Mycobacterium avium 104
[25] = target: HLA-A*69:01; assay: as above; settings: source organism: Yellow fever virus
[26] = source organism: Yellow fever virus 1899/81
[27] = source organism: Vaccinia virus WR
[28] = source organism: Dengue virus 2 Jamaica/1409/1983
[29] = source organism: Dengue virus 4 Philippines/H241/1956
[30] = source organism: Dengue virus 1 Brazil/97-11/1997
[31] = source organism: Lassa virus GA391
[32] = source organism: Mammarenavirus machupoense
[33] = source organism: SARS coronavirus Tor2
[34] = source organism: Mammarenavirus whitewaterense
[35] = source organism: Cryptosporidium hominis
[36] = source organism: Lymphocytic choriomeningitis virus (strain Armstrong)
[37] = source organism: Mammarenavirus guanaritoense
[38] = source organism: Yellow fever virus
[39] = source organism: Burkholderia mallei
[40] = source organism: Mammarenavirus juninense

Sequence: VYMDAVFEY
- Kd [1, 26]: 600 nM
- Kd [2, 26]: ≥ 20000 nM

Sequence: KTWGKAKIV
- Kd ([3]; source organism: Dengue virus 3 Martinique/1243/1999): 1260 nM

Sequence: ITYPKALVF
- Kd [3, 27]: 3.02 nM

Sequence: NPTTLTASL
- Kd ([4]; source organism: Dengue virus 4 Dominica/814669/1981): 57.3 nM

Sequence: LAAVSVSPL
- Kd [4, 28]: 125 nM

Sequence: QEEHKETWHY
- Kd [5, 29]: 422 nM
- Kd [6, 29]: 685 nM

Sequence: FSSQALVLI
- Kd [7]: ≥ 20000 nM
- Kd [8]: 692 nM
- Kd ([9]; source organism: Escherichia coli 536): ≥ 20000 nM

Sequence: ALEVLMSPCR
- Kd [10, 27]: ≥ 38500 nM
- Kd [11]: 6330 nM
- Kd [12]: 254 nM
- Kd [13]: 328 nM
- Kd [14]: 42.4 nM
- Kd [15]: 465 nM

Sequence: NEMGLLETTK
- Kd [5, 30]: ≥ 20700 nM
- Kd [6, 30]: 1690 nM

Sequence: EGNETPGGY
- Kd [16, 31]: ≥ 77900 nM
- Kd [10, 31]: 18600 nM
- Kd [17, 31]: ≥ 76900 nM
- Kd [18, 31]: ≥ 20900 nM
- Kd [19, 31]: 1210 nM
- Kd [20, 31]: 174 nM

Sequence: EENVEVEIW
- Kd [5, 28]: 39.1 nM
- Kd [6, 28]: 45.1 nM

Sequence: VGIPTHRHL
- Kd [16, 32]: ≥ 77900 nM
- Kd [10, 32]: ≥ 78900 nM
- Kd [17, 32]: 14300 nM
- Kd [18, 32]: ≥ 69400 nM
- Kd [19, 32]: ≥ 40300 nM
- Kd [20, 32]: 14000 nM

Sequence: DTSNPKTPKY
- Kd [16, 33]: 1260 nM
- Kd [10, 33]: 367 nM
- Kd [17, 33]: 48.9 nM
- Kd [18, 33]: 194 nM
- Kd [19, 33]: ≥ 70300 nM
- Kd [20, 33]: ≥ 70000 nM

Sequence: LLQFIVFLL
- Kd [10, 34]: ≥ 23400 nM
- Kd [19, 34]: ≥ 77500 nM
- Kd [20, 34]: 18800 nM

Sequence: YTTTIKPVSY
- Kd [16, 33]: 878 nM
- Kd [10, 33]: 31.6 nM
- Kd [17, 33]: 1020 nM
- Kd [18, 33]: 41.6 nM
- Kd [19, 33]: ≥ 70300 nM
- Kd [20, 33]: ≥ 70000 nM

Sequence: MSFSDTFEM
- Kd [21]: 205 nM
- Kd [22, 35]: 55.3 nM
- Kd [23, 35]: 0.6 nM

Sequence: ICISLSNSF
- Kd [16, 36]: ≥ 77900 nM
- Kd [10, 36]: ≥ 78900 nM
- Kd [17, 36]: ≥ 76900 nM
- Kd [18, 36]: ≥ 21400 nM
- Kd [19, 36]: ≥ 77500 nM
- Kd [20, 36]: ≥ 77700 nM

Sequence: TPKFTRMVV
- Kd ([9]; source organism: Mycobacterium tuberculosis C): ≥ 20000 nM
- Kd [24]: 104 nM

Sequence: GVIMPNGSY
- Kd ([2]; source organism: West Nile virus): 1990 nM

Sequence: QQICSNFKI
- Kd [10, 37]: 3770 nM
- Kd [19, 37]: 13100 nM
- Kd [20, 37]: 98.8 nM

Sequence: NEPEDIDCW
- Kd [5, 28]: 870 nM
- Kd [6, 28]: 1080 nM

Sequence: ITLVYKVYY
- Kd [16, 33]: 1640 nM
- Kd [10, 33]: 1.64 nM
- Kd [17, 33]: 5.19 nM
- Kd [18, 33]: 44.9 nM
- Kd [19, 33]: ≥ 77600 nM
- Kd [20, 33]: ≥ 57700 nM

Sequence: KMLDPRQGL
- Kd [1, 38]: 808 nM
- Kd [25]: ≥ 10000 nM
- Kd [2, 38]: ≥ 20000 nM

Sequence: LAASVFFTF
- Kd [22, 39]: 2140 nM
- Kd [23, 39]: 203 nM

Sequence: LVIASLPLF
- Kd [10, 40]: 1210 nM
- Kd [19, 40]: 484 nM
- Kd [20, 40]: 19.1 nM

Sequence: AICSAVPSHW
- Kd [6, 28]: 181 nM

Sequence: AIAVASGLLW
- Kd [5, 29]: 908 nM
- Kd [6, 29]: 8800 nM

Sequence: VMMSAPPAEY
- Kd [16, 33]: 9020 nM
- Kd [10, 33]: 3.16 nM
- Kd [17, 33]: 4.31 nM
- Kd [18, 33]: 154 nM
- Kd [19, 33]: ≥ 35600 nM
- Kd [20, 33]: ≥ 39900 nM
